According to patent publication US20260092111A1 (MOR RESEARCH APPLICATIONS, published 2026):
Values joined by “and” are separate entries in the source; they are usually repeats but may differ in a detail not shown here. Identical values can stand only once.

Key:
[1] = biological target: T1, extracellular domain (ECD) of human TREM2 (human, UniProt Q9NZC2 19-174); test: SPR (Biacore)
T1 construct: also called Human TREM2-ECD; human TREM2-extracellular domain (ECD)
T1 sequence: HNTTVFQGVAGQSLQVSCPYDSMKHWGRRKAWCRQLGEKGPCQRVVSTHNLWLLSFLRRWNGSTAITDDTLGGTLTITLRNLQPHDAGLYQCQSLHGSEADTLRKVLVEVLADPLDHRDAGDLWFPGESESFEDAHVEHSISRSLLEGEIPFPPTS
Text: (§1) A Surface Plasmon Resonance (Biacore) assay was used to assess the binding of humanized CGX101 (hCGX101), an IgG4 antibody, to the extracellular domain of human TREM2 and to a protein containing the extracellular domain of mouse TREM2 fused to Fc.

[2] = biological target: T2, protein containing the extracellular domain of mouse TREM2 fused to Fc (mouse, UniProt Q99NH8 19-171); test: SPR (Biacore)
T2 construct: extracellular domain; also called Mouse TREM2-Fc; not shown: Fc
T2 sequence (looked up): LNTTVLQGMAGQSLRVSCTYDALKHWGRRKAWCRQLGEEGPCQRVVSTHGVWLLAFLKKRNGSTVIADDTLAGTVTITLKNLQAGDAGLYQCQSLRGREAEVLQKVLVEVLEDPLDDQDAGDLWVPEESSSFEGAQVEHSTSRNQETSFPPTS
Text: as §1

Kd [1]: 5.74 nM and 5.73 nM
koff [1]: 0.000715 s⁻¹
kon [1]: 125000 M⁻¹ s⁻¹
Kd [2]: 18.6 nM
koff [2]: 0.00106 s⁻¹
kon [2]: 57000 M⁻¹ s⁻¹
B1: humanized CGX101 (hCGX101), an IgG4 antibody (antibody, V domains shown)
VH: EVQLVQSGAEVKKPGESLKISCKGSGYTFTDYNIHWVRQMPGKGLEWMGYIYPKNGGTGYTQKFKSQVTISVDNSISTAYLQWSSLKASDTAMYYCARRTARASWFAFWGQGTLVTVSS
VL: DIVMTQSPATLSVSPGERATLSCKSSQSLLYSSNQKNYLAWYQQKPGQAPRVLIYWASTRESGIPARFSGSGSGTEFTLTISSLQSEDFAVYYCQQYYNYPFTFGQGTKLEIK
notes: also called hIgG4; huIgG4
